Reference: patent publication US20240100133A1 (SAINT LOUIS UNIVERSITY, published 2024)

Experiments:
[1] = molecular target: T1, Cluster of Differentiation 14 (CD14), human, endogenous in primary human monocytes (human, UniProt P08571 20-345); experiment: co-immunoprecipitation with anti-GzmA from lysates of GzmA-treated human monocytes, western blot for CD14
T1 construct: whole, on cells; also called CD14 receptor
T1 sequence (looked up): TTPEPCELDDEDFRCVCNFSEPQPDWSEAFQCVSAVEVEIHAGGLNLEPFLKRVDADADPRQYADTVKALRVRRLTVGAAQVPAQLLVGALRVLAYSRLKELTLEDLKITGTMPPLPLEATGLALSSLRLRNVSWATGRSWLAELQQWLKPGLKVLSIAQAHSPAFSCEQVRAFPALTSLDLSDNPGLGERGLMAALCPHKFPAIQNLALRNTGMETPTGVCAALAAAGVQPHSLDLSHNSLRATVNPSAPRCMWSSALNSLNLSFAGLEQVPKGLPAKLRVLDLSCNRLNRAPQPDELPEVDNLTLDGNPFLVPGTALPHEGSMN

[2] = molecular target: T2, Toll-like Receptor 4 (TLR4), human, endogenous in primary human monocytes (human, UniProt O00206 24-839); experiment: co-immunoprecipitation with anti-GzmA from lysates of GzmA-treated human monocytes, western blot for TLR4
T2 construct: whole, on cells
T2 sequence (O00206 24-839): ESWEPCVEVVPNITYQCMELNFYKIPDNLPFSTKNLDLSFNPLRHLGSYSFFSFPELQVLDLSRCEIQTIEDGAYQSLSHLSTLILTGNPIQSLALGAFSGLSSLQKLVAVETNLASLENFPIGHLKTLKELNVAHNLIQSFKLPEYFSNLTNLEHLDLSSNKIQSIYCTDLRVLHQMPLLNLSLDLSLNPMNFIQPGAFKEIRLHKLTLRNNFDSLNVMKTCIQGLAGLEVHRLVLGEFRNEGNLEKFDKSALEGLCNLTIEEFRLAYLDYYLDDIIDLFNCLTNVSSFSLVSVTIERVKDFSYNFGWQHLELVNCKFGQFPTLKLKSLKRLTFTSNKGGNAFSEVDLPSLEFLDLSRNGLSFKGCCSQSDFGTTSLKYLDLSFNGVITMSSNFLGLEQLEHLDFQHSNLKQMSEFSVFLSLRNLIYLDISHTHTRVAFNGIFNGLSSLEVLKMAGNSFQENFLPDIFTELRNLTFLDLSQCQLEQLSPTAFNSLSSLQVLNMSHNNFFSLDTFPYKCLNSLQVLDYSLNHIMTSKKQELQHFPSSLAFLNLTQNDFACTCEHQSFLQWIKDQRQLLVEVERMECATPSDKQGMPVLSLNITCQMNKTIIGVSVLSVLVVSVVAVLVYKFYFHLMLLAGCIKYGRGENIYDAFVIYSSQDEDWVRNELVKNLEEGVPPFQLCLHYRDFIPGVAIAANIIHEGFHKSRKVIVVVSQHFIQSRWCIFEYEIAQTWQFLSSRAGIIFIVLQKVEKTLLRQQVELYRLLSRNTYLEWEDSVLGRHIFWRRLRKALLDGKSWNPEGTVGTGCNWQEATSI

- binding result [1]: no binding
- binding result [2]: no binding
B1: Monomeric Granzyme A C93S, recombinant human, His-tagged (GzmA-C93S) (enzyme)
chain: IIGGNEVTPHSRPYMVLLSLDRKTICAGALIAKDWVLTAAHCNLNKRSQVILGAHSITREEPTKQIMLVKKEFPYPSYDPATREGDLKLLQLMEKAKINKYVTILHLPKKGDDVKPGTMCQVAGWGRTHNSASWSDTLREVNITIIDRKVCNDRNHYNFNPVIGMNMVCAGSLRGGRDSCNGDSGSPLLCEGVFRGVTSFGLENKCGDPRGPGVYILLSKKHLNWIIMTIKGAV
notes: Forms only monomers; also called monomeric GzmA; GzmA-monomer; not shown: His tag
